Target: CMV gB ectodomain protein
Test: ELISA
Details: parent: 171.7

“TRL345 unmutated common ancestor (UCA) mAb L:S30G” was tested. Which EC50 did it give?
Its EC50 is 0.0127 µg/mL.

With “TRL345 unmutated common ancestor (UCA) mAb H:Y52aN” as the substance, how does the EC50 read?
The EC50 was 0.0851 µg/mL.

How did the EC50 turn out when “TRL345 unmutated common ancestor (UCA) mAb H:Y52aN; L:N53D” was run?
The EC50 was 0.0094 µg/mL.

Which EC50 does the source give for “TRL345 unmutated common ancestor (UCA) mAb H:Y52aN; L:S30G; L:N53D” here?
Its EC50 is 0.0077 µg/mL.

How did the EC50 turn out when “TRL345 unmutated common ancestor (UCA) mAb L:N53D” was run?
The EC50 was 0.0197 µg/mL.

Target: full-length gB (Towne strain) expressed on HEK293T cells (UniProt P13201)
Test: flow cytometry on cells
Details: three-point, 10-fold mAb serial dilution starting at 0.1 μg/mL; parent: 94

With “TRL345 unmutated common ancestor (UCA) mAb H:A33N; L:N53D” as the substance, how does the other: AUC read?
Its other: AUC is 180 AUC.

For “TRL345 unmutated common ancestor (UCA) mAb H:A33N; L:S30G”, which other: AUC is on record?
Its other: AUC is 207 AUC.

How did the other: AUC turn out when “TRL345 unmutated common ancestor (UCA) mAb H:A33N; H:Y52aN” was run?
The other: AUC was 140 AUC.

“TRL345 unmutated common ancestor (UCA) mAb H:A33N; L:S30G; L:N53D” was tested. Which other: AUC did it give?
Its other: AUC is 138 AUC.

“TRL345 unmutated common ancestor (UCA) mAb L:S30G; L:N53D” was tested. Which other: AUC did it give?
The other: AUC was 107 AUC.

With “TRL345 unmutated common ancestor (UCA) mAb H:Y52aN; L:S30G” as the substance, how does the other: AUC read?
The other: AUC was 124 AUC.

For “TRL345 unmutated common ancestor (UCA) mAb H:Y52aN; L:N53D”, which other: AUC is on record?
The other: AUC was 109 AUC.

For “TRL345 unmutated common ancestor (UCA) mAb L:N53D”, which other: AUC is on record?
Its other: AUC is 90 AUC.

“TRL345 unmutated common ancestor (UCA) mAb H:A33N; H:Y52aN; L:S30G” was tested. Which other: AUC did it give?
Its other: AUC is 144 AUC.

With “TRL345 unmutated common ancestor (UCA) mAb H:A33N; H:Y52aN; L:N53D” as the substance, how does the other: AUC read?
Its other: AUC is 143 AUC.

Reference: PMC9891502
